T1: polyhistidine-tagged Pol1B (recombinant, fluorescently labelled) (Arabidopsis thaliana, UniProt Q84ND9 56-1034, fluorescent dye RED-tris-NTA (Monolith His-Tag Labeling Kit) on the His tag)
T1 construct: DNA polymerase 1B, Arabidopsis thaliana, At3g20540; also called his-tagged Pol1B; DNA polymerase 1B; source: recombinant, purified
T1 sequence (looked up): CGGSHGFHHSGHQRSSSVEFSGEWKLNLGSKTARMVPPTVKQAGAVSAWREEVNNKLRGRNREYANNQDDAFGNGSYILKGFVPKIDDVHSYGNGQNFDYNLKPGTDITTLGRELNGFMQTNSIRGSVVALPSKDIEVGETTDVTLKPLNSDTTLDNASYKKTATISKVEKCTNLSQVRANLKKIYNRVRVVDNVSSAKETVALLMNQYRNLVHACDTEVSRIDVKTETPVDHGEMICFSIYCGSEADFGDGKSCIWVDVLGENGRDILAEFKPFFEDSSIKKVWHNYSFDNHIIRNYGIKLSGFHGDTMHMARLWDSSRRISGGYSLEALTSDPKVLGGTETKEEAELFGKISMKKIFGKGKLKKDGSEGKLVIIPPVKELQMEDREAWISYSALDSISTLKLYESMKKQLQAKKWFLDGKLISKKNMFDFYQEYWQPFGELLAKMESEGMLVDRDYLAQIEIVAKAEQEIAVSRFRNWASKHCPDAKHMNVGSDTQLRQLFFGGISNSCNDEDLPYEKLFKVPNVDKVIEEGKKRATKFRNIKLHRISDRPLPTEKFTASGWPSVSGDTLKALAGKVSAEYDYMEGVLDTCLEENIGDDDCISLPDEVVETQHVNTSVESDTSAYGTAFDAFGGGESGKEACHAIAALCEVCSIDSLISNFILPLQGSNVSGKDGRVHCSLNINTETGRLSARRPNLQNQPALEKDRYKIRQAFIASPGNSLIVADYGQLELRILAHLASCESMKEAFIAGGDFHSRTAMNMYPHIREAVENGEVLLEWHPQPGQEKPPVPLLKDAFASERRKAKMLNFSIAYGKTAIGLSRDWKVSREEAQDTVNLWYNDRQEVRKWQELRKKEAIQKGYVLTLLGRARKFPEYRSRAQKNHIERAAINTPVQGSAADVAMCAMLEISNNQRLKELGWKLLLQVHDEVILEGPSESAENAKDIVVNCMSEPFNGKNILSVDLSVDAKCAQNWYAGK


Tests used:
[1] = target: T7 primase-helicase (Escherichia phage T7) (UniProt P03692); details: cited from earlier work
DnaE (Bacillus subtilis) = DnaE (Bacillus subtilis) (UniProt O34623); details: cited from earlier work
[2] = target: T1, polyhistidine-tagged Pol1B …; assay: MST; His-tagged Pol1B labelled with RED-tris-NTA, constant 20 nM (10 nM in the results text); ligands in 16 serial dilutions; PBS + 0.05% Tween; Monolith NT.115p, 10% LED power, 50% MST power, standard capillaries; details: both partners purified

DnaE (Bacillus subtilis), sequence (O34623 whole entry): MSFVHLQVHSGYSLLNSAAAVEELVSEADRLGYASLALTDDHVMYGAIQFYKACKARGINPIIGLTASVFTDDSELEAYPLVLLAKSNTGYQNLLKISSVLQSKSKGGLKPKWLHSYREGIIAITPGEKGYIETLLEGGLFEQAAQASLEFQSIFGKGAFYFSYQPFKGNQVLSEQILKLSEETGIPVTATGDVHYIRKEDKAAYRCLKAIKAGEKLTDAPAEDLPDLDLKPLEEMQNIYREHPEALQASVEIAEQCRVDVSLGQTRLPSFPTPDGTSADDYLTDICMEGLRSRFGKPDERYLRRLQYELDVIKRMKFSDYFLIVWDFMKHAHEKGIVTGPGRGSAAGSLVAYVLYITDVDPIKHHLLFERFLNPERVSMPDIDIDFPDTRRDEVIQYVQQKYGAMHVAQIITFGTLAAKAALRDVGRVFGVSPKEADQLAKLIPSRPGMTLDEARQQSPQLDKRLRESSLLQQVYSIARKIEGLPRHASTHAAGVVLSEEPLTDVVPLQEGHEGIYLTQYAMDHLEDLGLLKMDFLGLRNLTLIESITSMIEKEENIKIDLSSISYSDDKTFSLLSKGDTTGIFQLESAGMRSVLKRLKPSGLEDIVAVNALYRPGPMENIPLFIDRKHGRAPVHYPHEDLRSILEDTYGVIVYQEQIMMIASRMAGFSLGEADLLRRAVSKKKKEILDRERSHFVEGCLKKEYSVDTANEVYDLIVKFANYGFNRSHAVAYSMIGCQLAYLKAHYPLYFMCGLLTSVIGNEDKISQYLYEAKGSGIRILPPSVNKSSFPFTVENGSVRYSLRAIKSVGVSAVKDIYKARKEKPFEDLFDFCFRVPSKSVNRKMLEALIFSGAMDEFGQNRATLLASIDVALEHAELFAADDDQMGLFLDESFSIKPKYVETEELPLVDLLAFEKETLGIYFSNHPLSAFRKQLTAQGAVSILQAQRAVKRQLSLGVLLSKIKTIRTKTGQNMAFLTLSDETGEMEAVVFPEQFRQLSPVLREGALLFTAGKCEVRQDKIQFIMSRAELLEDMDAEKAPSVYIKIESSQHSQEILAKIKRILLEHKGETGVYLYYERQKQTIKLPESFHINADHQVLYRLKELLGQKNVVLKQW
DnaG primase, sequence (P05096 whole entry): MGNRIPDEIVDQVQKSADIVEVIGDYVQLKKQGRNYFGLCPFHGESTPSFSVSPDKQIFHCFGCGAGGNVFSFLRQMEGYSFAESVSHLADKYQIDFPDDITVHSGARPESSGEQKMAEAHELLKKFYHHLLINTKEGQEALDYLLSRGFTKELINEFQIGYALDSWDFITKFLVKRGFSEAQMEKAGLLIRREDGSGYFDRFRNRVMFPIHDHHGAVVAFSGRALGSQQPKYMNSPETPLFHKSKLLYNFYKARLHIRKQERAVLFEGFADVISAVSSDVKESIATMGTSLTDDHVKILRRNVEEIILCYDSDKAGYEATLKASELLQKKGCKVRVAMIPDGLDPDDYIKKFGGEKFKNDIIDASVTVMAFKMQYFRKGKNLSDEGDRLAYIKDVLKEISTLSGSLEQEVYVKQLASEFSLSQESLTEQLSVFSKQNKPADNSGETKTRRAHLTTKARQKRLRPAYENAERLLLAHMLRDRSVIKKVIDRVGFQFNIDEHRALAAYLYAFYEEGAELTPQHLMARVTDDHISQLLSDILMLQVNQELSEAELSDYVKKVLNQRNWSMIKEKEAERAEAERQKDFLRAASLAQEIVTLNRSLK
T7 primase-helicase (Escherichia phage T7), sequence (P03692 whole entry): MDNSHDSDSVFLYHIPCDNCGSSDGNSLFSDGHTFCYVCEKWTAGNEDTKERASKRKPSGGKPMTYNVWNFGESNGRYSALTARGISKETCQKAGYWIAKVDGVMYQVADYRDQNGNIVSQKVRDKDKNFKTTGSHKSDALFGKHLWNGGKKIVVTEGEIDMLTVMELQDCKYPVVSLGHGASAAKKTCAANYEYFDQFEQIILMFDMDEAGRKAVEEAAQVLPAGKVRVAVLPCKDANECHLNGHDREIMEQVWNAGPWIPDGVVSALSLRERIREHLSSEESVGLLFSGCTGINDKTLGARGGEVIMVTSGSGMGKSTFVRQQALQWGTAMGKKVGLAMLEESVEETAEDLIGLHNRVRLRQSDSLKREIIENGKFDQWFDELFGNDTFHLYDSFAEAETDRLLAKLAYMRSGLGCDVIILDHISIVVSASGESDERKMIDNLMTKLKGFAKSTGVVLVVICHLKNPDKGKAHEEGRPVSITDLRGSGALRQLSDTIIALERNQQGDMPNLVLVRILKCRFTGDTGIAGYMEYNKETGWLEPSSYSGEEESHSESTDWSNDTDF
T7 DNA polymerase, sequence (P00581 whole entry): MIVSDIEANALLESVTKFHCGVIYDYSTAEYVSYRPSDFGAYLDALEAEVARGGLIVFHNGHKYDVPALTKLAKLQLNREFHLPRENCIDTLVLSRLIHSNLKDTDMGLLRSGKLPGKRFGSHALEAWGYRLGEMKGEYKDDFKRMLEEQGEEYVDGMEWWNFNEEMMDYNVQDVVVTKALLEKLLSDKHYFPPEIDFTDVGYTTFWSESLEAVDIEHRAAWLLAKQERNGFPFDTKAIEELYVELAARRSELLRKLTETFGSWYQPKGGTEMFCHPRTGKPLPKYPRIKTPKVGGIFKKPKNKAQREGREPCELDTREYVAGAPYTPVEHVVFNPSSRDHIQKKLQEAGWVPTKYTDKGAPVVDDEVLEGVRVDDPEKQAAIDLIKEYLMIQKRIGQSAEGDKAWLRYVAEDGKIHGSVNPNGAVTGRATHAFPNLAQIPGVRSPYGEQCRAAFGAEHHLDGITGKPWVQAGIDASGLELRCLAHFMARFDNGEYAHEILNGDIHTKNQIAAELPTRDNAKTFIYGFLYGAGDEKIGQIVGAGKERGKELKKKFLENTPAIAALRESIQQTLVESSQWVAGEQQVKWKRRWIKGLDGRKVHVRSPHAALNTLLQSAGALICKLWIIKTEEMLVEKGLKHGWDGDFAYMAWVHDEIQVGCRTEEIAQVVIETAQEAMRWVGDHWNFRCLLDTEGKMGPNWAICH

| Molecule | Kd [2] | also measured |
| --- | --- | --- |
| T7 DNA polymerase (from UniProt P00581) | – | Kd [1]: 0.44 µM |
| DnaG primase (from UniProt P05096) | – | Kd (DnaE (Bacillus subtilis)): 0.75 µM |
| Twinkle helicase domain (401-709) (domain or fragment, Arabidopsis thaliana, UniProt B5X582 401-709, looked up, Twinkle, Arabidopsis thaliana, At1g30680, helicase domain, residues 401-709; Tags of the pCri-1b vector removed with TEV protease; also called helicase module; source: cloned into pCri-1b, purified (potassium phosphate pH 7.0 buffer)) AILDAEPYPILGLFSFKDFFDEIDAYYDRTHGHEYGVSTGWKNLDNLYSVVPGELTVVTGIPNSGKSEWIDAMLCNLNHSVGWKFALCSMENKVRDHARKLLEKHIKKPFFDADYGRSVQRMSVEEKDEGKKWLNDTFYPIRCEMDSLPSIDWVLERAKAAVLRYGIRGLVIDPYNELDHQRTPRQTETEYVSQMLTKIKRFSQHHSCHVWFVAHPKQLQHWDGGAPNLYDISGSAHFINKCDNGIIVHRNRDENAGPLDLVQIGVRKVRNKVAGQIGDAYLCYDRTTGSYSDSPVTPGMPERRSPKRY | 1.97 µM | – |

Further lines, with some results ahead:

| Kd [2] | Molecule | also measured |
| --- | --- | --- |
| 2.17 µM | Twinkle zinc finger subdomain (residues 92-186) (domain or fragment, Arabidopsis thaliana, UniProt B5X582 92-186, looked up, Twinkle, Arabidopsis thaliana, At1g30680, zinc finger subdomain, residues 92-186; Tag removed with PreScission protease; also called Zn++ Finger domain; zf) TPVDTEVEADKRVVLSRLVTLRRKLAEQGVDAENCPPGQHSGLICPTCEGGNSGEKSLSLFIAPDGSSATWNCFRGKCGLKGGVRADGGLASADP | – |
| 1.26 µM | full-length Twinkle (recombinant, without histidine tag) (enzyme, Arabidopsis thaliana, UniProt B5X582 82-709, looked up, Twinkle, Arabidopsis thaliana, At1g30680; called full-length in the results and legend; the methods name 'Twinkle lacking the first 91 codons' as the template of the domain constructs; Used without a histidine tag; It may in fact be the form lacking the first 91 residues (92-709); also called the full-length protein) SSYNSIPRVPTPVDTEVEADKRVVLSRLVTLRRKLAEQGVDAENCPPGQHSGLICPTCEGGNSGEKSLSLFIAPDGSSATWNCFRGKCGLKGGVRADGGLASADPIEKVERKITVEGIELEPLCDEIQDYFAARAISRKTLERNRVMQKRIGDEIVIAFTYWQRGELVSCKYRSLTKMFFQERKTRRILYGLDDIEKTSEVIIVEGEIDKLAMEEAGFLNCVSVPDGAPAKVSSKEIPSEDKDTKYKFLWNCNDYLKKASRIVIATDGDGPGQAMAEEIARRLGKERCWRVKWPKKSEDEHFKDANEVLMSKGPHLLKEAILDAEPYPILGLFSFKDFFDEIDAYYDRTHGHEYGVSTGWKNLDNLYSVVPGELTVVTGIPNSGKSEWIDAMLCNLNHSVGWKFALCSMENKVRDHARKLLEKHIKKPFFDADYGRSVQRMSVEEKDEGKKWLNDTFYPIRCEMDSLPSIDWVLERAKAAVLRYGIRGLVIDPYNELDHQRTPRQTETEYVSQMLTKIKRFSQHHSCHVWFVAHPKQLQHWDGGAPNLYDISGSAHFINKCDNGIIVHRNRDENAGPLDLVQIGVRKVRNKVAGQIGDAYLCYDRTTGSYSDSPVTPGMPERRSPKRY | – |
| 0.81 µM | Twinkle primase domain (residues 92-410) (domain or fragment, Arabidopsis thaliana, UniProt B5X582 92-410, looked up, Twinkle, Arabidopsis thaliana, At1g30680, primase domain, residues 92-410; Tag removed with PreScission protease; also called primase module) TPVDTEVEADKRVVLSRLVTLRRKLAEQGVDAENCPPGQHSGLICPTCEGGNSGEKSLSLFIAPDGSSATWNCFRGKCGLKGGVRADGGLASADPIEKVERKITVEGIELEPLCDEIQDYFAARAISRKTLERNRVMQKRIGDEIVIAFTYWQRGELVSCKYRSLTKMFFQERKTRRILYGLDDIEKTSEVIIVEGEIDKLAMEEAGFLNCVSVPDGAPAKVSSKEIPSEDKDTKYKFLWNCNDYLKKASRIVIATDGDGPGQAMAEEIARRLGKERCWRVKWPKKSEDEHFKDANEVLMSKGPHLLKEAILDAEPYPI | – |
